Test results reported in US20220275047A1 (published 2022).

Biological target: T1, MUC5AC peptide on HLA-DPA1*01:03 / HLA-DPB1*04:01 (human)
T1 peptide: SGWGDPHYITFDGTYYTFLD
Assay: multimer staining

binding result: recognises
B1: 05-MUC5AC4922-4941 (TCR, V domains shown)
Valpha: QTVTQSQPEMSVQEAETVTLSCTYDTSESNYYLFWYKQPPSRQMILVIRQEAYKQQNATENRFSVNFQKAAKSFSLKISDSQLGDTAMYFCAFMKRAETSGSRLTFGEGTQLTVNP
Vbeta: NAGVTQTPKFRVLKTGQSMTLLCAQDMNHEYMYWYRQDPGMGLRLIHYSVGEGTTAKGEVPDGYNVSRLKKQNFLLGLESAAPSQTSVYFCASSYWPTRETQYFGPGTRLLVL
